T1: endogenous mouse PrxII (mouse (endogenous in MEFs and BMDMs)), Q61171
T1 chain: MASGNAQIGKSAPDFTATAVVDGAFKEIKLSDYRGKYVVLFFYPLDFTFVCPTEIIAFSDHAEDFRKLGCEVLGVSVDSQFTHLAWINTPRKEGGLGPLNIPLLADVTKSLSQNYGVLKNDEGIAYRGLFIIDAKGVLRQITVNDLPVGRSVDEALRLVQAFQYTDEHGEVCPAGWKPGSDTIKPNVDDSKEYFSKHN

T2: endogenous mouse PrxI (mouse (endogenous in BMDMs)), P35700
T2 chain: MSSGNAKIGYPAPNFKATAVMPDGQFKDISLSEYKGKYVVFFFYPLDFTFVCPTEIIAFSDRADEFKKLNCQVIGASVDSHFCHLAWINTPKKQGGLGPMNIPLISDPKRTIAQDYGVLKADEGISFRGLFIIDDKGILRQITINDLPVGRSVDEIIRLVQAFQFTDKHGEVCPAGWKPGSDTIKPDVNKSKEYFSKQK


Columns and labels:
[1] = molecular target: T1, endogenous mouse PrxII (mouse …); test: nonreducing SDS-PAGE and immunoblot of disulfide-linked complexes; conditions: remark: other sources report otherwise
[2] = molecular target: T2, endogenous mouse PrxI (mouse …); test: as above; conditions: remark: other sources report otherwise

stoichiometry N [1]	stoichiometry N [2]	Binder
2		endogenous mouse PrxII, Q61171 1-198 (enzyme) MASGNAQIGKSAPDFTATAVVDGAFKEIKLSDYRGKYVVLFFYPLDFTFVCPTEIIAFSDHAEDFRKLGCEVLGVSVDSQFTHLAWINTPRKEGGLGPLNIPLLADVTKSLSQNYGVLKNDEGIAYRGLFIIDAKGVLRQITVNDLPVGRSVDEALRLVQAFQYTDEHGEVCPAGWKPGSDTIKPNVDDSKEYFSKHN
	2	endogenous mouse PrxI, P35700 1-199 (enzyme) MSSGNAKIGYPAPNFKATAVMPDGQFKDISLSEYKGKYVVFFFYPLDFTFVCPTEIIAFSDRADEFKKLNCQVIGASVDSHFCHLAWINTPKKQGGLGPMNIPLISDPKRTIAQDYGVLKADEGISFRGLFIIDDKGILRQITINDLPVGRSVDEIIRLVQAFQFTDKHGEVCPAGWKPGSDTIKPDVNKSKEYFSKQK
